# In patent publication EP4696329A1 (BioRay Pharmaceutical Co., Ltd., dated 2024):
# Where a chain is given by its changes, count along the chain named. In names and notes the source's numbering stands.
# B1: ADC-6 (UC961 conjugated to LD-14) (antibody, human IgG1, kappa, V domains shown)
# VH: QVQLQESGPGLVKPSQTLSLTCTVSGYAFTAYNIHWVRQAPGQGLEWMGSFDPYDGGSSYNQKFKDRLTISKDTSKNQVVLTMTNMDPVDTATYYCARGWYYFDYWGHGTLVTVSS
# VL: DIVMTQTPLSLPVTPGEPASISCRASKSISKYLAWYQQKPGQAPRLLIYSGSTLQSGIPPRFSGSGYGTDFTLTINNIESEDAAYYFCQQHDESPYTFGEGTKVEIKR
# modifications: linker-drug LD-14 (eribulin) on cysteine sulfhydryls of reduced disulfides; drug loading 3.7-4.3 per antibody
# B2: ADC-7 (UC961 conjugated to LD-1) (antibody, human IgG1, kappa, V domains shown)
# VH: B1 VH
# VL: B1 VL
# modifications: linker-drug LD-1 (MMAE) on cysteine sulfhydryls of reduced disulfides; drug loading 3.7-4.3 per antibody
# B3: ADC-5 (AM3-ZH3 conjugated to LD-1) (antibody, human IgG1, kappa, V domains shown)
# VH: EVQLVESGGGLVQPGGSLRLSCAASGFTFSSYPMSWVRQAPGKGLEWVSSISTGASAYFPDSVKGRFTISRDNAKNSLYLQMNSLRAEDTAVYYCARITTSTWYMDVWGQGTTVTVSS
# VL: DIQMTQSPSAMSASVGDRVTITCKASQDIYSYLSWFQQKPGKVPKTLIYRANRLVRGVPSRFSGSGSGQEYTLTISSLQPEDMATYYCLQYDEFPYTFGQGTKLEIKR
# modifications: linker-drug LD-1 (MMAE) on cysteine sulfhydryls of reduced disulfides; average DAR between 3.7 and 4.3
# B4: ADC-2 (AM3-ZH3 conjugated to LD-14) (antibody, human IgG1, kappa, V domains shown)
# VH: B3 VH
# VL: B3 VL
# modifications: linker-drug LD-14 (eribulin) on cysteine sulfhydryls of reduced disulfides; average DAR between 3.7 and 4.3
# B5: ADC-3 (KIH YR8/ZH3 conjugated to LD-14) (bispecific antibody, human IgG1, kappa)
# heavy 1: not shown
# light 1: EIVLTQSPATLSLSPGERATLSCSASSQVSYIHWYQQKPGQAPRPWIYETSKLASGIPARFSGSGSGTDYTLTISSLEPEDFAVYYCQQWNYPLITFGQGTKLEIKRTVAAPSVFIFPPSDEQLKSGTASVVCLLNNFYPREAKVQWKVDNALQSGNSQESVTEQDSKDSTYSLSSTLTLSKADYEKHKVYACEVTHQGLSSPVTKSFNRGEC
# heavy 2: not shown
# light 2: DIQMTQSPSAMSASVGDRVTITCKASQDIYSYLSWFQQKPGKVPKTLIYRANRLVRGVPSRFSGSGSGQEYTLTISSLQPEDMATYYCLQYDEFPYTFGQGTKLEIKRTVAAPSVFIFPPSDEQLKSGTASVVCLLNNFYPREAKVQWKVDNALQSGNSQESVTEQDSKDSTYSLSSTLTLSKADYEKHKVYACEVTHQGLSSPVTKSFNRGEC
# modifications: linker-drug LD-14 (eribulin) on cysteine sulfhydryls of reduced disulfides; average DAR between 3.7 and 4.3
# B6: ADC-4 (KIH YR8/ZH3 conjugated to LD-1) (bispecific antibody, human IgG1, kappa)
# heavy 1: not shown
# light 1: B5 light 1
# heavy 2: not shown
# light 2: B5 light 2
# modifications: linker-drug LD-1 (MMAE) on cysteine sulfhydryls of reduced disulfides; average DAR between 3.7 and 4.3
# B7: YR-8-NL (antibody, human IgG1, kappa, V domains shown)
# VH: QVQLQESGPGLVKPSETLSLTCTVSGFSLTRYGVHWIRQPPGKGLEWLGVIWAGGFTNYNLDLKSRLTISKDNSKNQVSLKLSSVTAADTAVYYCARRGDSYSMKYWGQGTLVTVSS
# VL: EIVLTQSPATLSLSPGERATLSCSASSQVSYIHWYQQKPGQAPRPWIYETSKLASGIPARFSGSGSGTDYTLTISSLEPEDFAVYYCQQWNYPLITFGQGTKLEIKR
# notes: YR-8 with S61L (Kabat) in the heavy chain
# B8: YR-8-NI (antibody, human IgG1, kappa, V domains shown)
# VH: B7 VH with L61I
# VL: B7 VL
# notes: YR-8 with S61I (Kabat) in the heavy chain
# B9: YR-8-NA (antibody, human IgG1, kappa, V domains shown)
# VH: B7 VH with L61A
# VL: B7 VL
# notes: YR-8 with S61A (Kabat) in the heavy chain
# B10: YR-8-NT (antibody, human IgG1, kappa, V domains shown)
# VH: B7 VH with L61T
# VL: B7 VL
# notes: YR-8 with S61T (Kabat) in the heavy chain
# B11: YR-8-NV (antibody, human IgG1, kappa, V domains shown)
# VH: B7 VH with L61V
# VL: B7 VL
# notes: YR-8 with S61V (Kabat) in the heavy chain
# B12: KIH YR8/ZH3, an ROR1-targeting biepitopic antibody (bispecific antibody, human IgG1, kappa)
# heavy 1: not shown
# light 1: B5 light 1
# heavy 2: not shown
# light 2: B5 light 2
# notes: chain 1: YR-8-ES arm with Fc knob (T366W); chain 3: AM3-ZH3 arm with Fc hole (T366S, L368A, Y407V); made by reduction and mixing of YR-8-ES variant 1 and AM3-ZH3 variant 1
# B13: YR-4 (antibody, human IgG1, kappa, V domains shown)
# VH: B7 VH with L48I, L61S, D62S, L67V, S101G, K105Q
# VL: B7 VL with T50I
# B14: YR-21 (antibody, human IgG1, kappa, V domains shown)
# VH: B7 VH with L61S, D62G, S101Q, K105G
# VL: B7 VL
# B15: AM3-ZH7 (antibody, human IgG1, kappa, V domains shown)
# VH: B3 VH with P33A
# VL: B3 VL
# B16: H10-hVH4-hVL4 (antibody, human IgG1, kappa, V domains shown)
# VH: B3 VH with P33A, M105F
# VL: B3 VL with Y30N, R56D
# notes: also called H10-VH4VL4
# B17: AM3-ZH5 (antibody, human IgG1, kappa, V domains shown)
# VH: B3 VH with P33A
# VL: B3 VL with Y30F, R56S
# B18: AM3-ZH6 (antibody, human IgG1, kappa, V domains shown)
# VH: B3 VH with P33A
# VL: B3 VL with R56G
# B19: AM3-ZH1 (antibody, human IgG1, kappa, V domains shown)
# VH: B3 VH with I98Y, M105F
# VL: B3 VL
# B20: AM3-ZH4 (antibody, human IgG1, kappa, V domains shown)
# VH: B3 VH with P33A, I98Y, M105H
# VL: B3 VL
# Molecular target: T1, human ROR1 expressed on cells (MDA-MB-231, Jeko-1, PA-1, HCC1187) (human, UniProt Q01973 30-937)
# Test: cell-based or functional assay
# T1 sequence (Q01973 30-937 limits assumed): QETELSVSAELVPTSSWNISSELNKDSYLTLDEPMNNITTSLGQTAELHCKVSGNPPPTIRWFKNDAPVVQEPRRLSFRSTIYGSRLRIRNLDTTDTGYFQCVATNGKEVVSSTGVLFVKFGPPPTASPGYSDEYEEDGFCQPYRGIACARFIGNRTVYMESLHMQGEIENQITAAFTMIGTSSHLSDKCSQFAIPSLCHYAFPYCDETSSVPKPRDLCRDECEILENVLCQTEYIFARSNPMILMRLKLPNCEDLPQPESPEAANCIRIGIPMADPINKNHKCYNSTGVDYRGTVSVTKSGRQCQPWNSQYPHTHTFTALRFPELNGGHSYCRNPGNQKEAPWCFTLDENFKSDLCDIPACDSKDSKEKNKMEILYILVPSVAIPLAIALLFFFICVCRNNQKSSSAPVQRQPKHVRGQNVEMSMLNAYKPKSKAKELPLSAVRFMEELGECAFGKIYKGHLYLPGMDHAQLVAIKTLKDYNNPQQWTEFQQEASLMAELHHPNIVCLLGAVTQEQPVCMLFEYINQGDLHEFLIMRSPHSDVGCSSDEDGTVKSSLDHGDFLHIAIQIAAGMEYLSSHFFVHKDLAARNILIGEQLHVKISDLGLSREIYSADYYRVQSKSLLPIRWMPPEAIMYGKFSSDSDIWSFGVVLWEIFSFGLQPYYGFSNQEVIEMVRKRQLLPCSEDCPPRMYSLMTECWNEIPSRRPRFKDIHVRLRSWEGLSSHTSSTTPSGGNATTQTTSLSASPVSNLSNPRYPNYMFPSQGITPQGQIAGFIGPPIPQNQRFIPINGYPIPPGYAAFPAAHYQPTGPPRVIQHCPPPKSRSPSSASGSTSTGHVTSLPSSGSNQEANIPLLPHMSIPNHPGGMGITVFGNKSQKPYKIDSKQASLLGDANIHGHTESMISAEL
Binder,inhibitory IC50 against the proliferation of HCC1187 cells (CellTiterGlo2),inhibitory IC50 against the proliferation of Jeko1 cells (CellTiterGlo2),inhibitory IC50 against the proliferation of PA-1 cells (CellTiterGlo2)
B1,0.24 nM,2.08 nM,0.36 nM
B2,15.4 nM,76.3 nM,15.1 nM
B3,6.3 nM,65.1 nM,17.8 nM
B4,0.09 nM,0.285 nM,0.017 nM
B5,0.014 nM,0.018 nM,0.032 nM
B6,1.2 nM,46.6 nM,4.2 nM

# Molecular target: T2, human ROR2 protein (hROR2, Kactus Biosystems, Cat. No. ROR-HM402) (human, UniProt Q01974 34-403, limits assumed)
# Test: ELISA, plate coated with hROR2
# T2 sequence (Q01974 34-403 limits assumed): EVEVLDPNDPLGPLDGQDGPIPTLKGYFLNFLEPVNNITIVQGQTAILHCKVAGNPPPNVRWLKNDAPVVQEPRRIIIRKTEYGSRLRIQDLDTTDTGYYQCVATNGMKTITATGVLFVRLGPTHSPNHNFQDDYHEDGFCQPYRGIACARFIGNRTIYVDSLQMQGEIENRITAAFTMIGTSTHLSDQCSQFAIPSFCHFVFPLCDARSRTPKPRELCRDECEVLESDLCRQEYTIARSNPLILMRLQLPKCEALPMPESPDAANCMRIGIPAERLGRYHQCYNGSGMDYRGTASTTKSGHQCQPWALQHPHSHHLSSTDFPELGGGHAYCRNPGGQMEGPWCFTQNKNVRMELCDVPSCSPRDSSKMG
row,Binder,binding result
1,B7,binds
2,B8,binds
3,B9,binds
4,B10,binds
5,B11,binds

# Molecular target: T1, human ROR1 expressed on cells …
# Test: flow cytometry on PA-1 cells
Binder,EC50,MFI fold
B12,0.41 nM,7 fold

# Molecular target: T3, human ROR1 protein (recombinant ROR1 antigen, Kactus Biosystems) (human, UniProt Q01973 30-406, limits assumed)
# Test: BLI (Octet R8), antibody captured on AHC sensor, ROR1 antigen as analyte
# T3 sequence (Q01973 30-406 limits assumed): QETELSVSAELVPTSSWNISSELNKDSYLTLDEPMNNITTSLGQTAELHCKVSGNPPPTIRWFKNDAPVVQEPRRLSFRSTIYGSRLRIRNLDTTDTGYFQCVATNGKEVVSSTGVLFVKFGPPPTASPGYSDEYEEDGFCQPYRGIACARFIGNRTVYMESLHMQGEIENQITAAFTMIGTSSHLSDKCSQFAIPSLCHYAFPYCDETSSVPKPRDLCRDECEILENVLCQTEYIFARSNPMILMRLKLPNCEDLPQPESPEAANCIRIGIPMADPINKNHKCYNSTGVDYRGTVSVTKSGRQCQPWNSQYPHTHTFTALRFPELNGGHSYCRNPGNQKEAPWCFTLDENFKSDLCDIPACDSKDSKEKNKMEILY
row,Binder,Kd
1,B7,16 nM
2,B8,14 nM
3,B9,14 nM
4,B10,16 nM
5,B11,16 nM

# Molecular target: T2, human ROR2 protein (hROR2, Kactus …)
# Test: ELISA, plate coated with hROR2
# Remark: another data set of the same source
row,Binder,binding result
1,B13,binds
2,B14,binds

# Molecular target: T1, human ROR1 expressed on cells …
# Test: flow cytometry on Jeko-1 cells
Binder,EC50,MFI fold
B12,0.19 nM,8.2 fold

# Molecular target: T2, human ROR2 protein (hROR2, Kactus …)
# Test: ELISA, plate coated with hROR2
# Remark: another data set of the same source
row,Binder,binding result
1,B15,no binding (tested: starting from 333.33 nM)
2,B16,no binding (tested: starting from 333.33 nM)
3,B17,no binding (tested: starting from 333.33 nM)
4,B18,no binding (tested: starting from 333.33 nM)
5,B19,binds
6,B20,no binding (tested: starting from 333.33 nM)

# Molecular target: T3, human ROR1 protein (recombinant ROR1 …)
# Test: binding to ROR1 (column 'Binding to ROR1'; method not described)
row,Binder,EC50
1,B15,0.0115 µg/mL
2,B16,0.0144 µg/mL
3,B17,0.0124 µg/mL
4,B18,0.012 µg/mL
5,B19,0.0127 µg/mL
6,B20,0.0161 µg/mL

# Molecular target: T3, human ROR1 protein (recombinant ROR1 …)
# Test: BLI (Octet R8), antibody captured on AHC sensor, ROR1 antigen as analyte
# Remark: another data set of the same source
row,Binder,Kd
1,B13,10 nM
2,B14,6.21 nM

# Molecular target: T3, human ROR1 protein (recombinant ROR1 …)
# Test: as above
# Remark: another data set of the same source
row,Binder,Kd
1,B15,8.5 nM
2,B16,47 nM
3,B17,10 nM
4,B18,11 nM
5,B19,7.9 nM
6,B20,27 nM

# Molecular target: T1, human ROR1 expressed on cells …
# Test: flow cytometry on MDA-MB-231 cells
row,Binder,EC50
1,B15,0.0101 µg/mL
2,B16,0.0304 µg/mL
3,B17,0.0148 µg/mL
4,B18,0.013 µg/mL
5,B19,0.0169 µg/mL
6,B20,0.0163 µg/mL
